“And” between values parts separate entries of the source, which are not always exact repeats. Identical values can stand only once.
Molecular target: CD16 expressed by Jurkat-CD16 cells (UniProt P08637)
Assay: flow cytometry on cells

Sequence of UniProt P08637 (P08637 17-254): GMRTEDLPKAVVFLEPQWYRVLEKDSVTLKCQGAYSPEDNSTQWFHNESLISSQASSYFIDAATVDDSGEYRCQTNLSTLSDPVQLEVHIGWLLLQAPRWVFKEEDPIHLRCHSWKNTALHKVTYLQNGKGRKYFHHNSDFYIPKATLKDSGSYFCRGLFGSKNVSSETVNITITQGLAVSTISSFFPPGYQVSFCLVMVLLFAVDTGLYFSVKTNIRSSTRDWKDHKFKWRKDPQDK

MFI of bound competitor anti-CD16-PE/3G8: 25.1 and 28.1 and 21.8
Substance: goat-produced cetuximab (gCetuximab) (antibody)

From publication PMC7655094
